Measurements from PMC7979752.

How the values were obtained:
[1] = molecular target: SmhC (S. marcescens MSU-97)
[2] = molecular target: SmhB (S. marcescens MSU-97); assay: crystal structure; SmhB pore form, crystallised in 0.2 M calcium chloride, 40% MPD, 16 °C; space group C2, 6.98 Å

## SmhB (natural protein)
[1]
  percentage lysis of horse erythrocytes with equimolar SmhB and SmhC, 2 h: 5%
[2]
  stoichiometry N: 10
